Laboratory results taken from patent US8440190.

Biological target: immobilized CD52 (human) (UniProt P31358)
Assay: Fab fragments assayed for binding to immobilized CD52

Substance: humanized Campath-1 Fab with (VL) CDR3 replaced by that of REI
- fold reduction of binding against the humanized Campath-1 Fab: 3 fold

Substance: humanized Campath-1 Fab with (VH) CDR1 replaced by that of NEW
- fold reduction of binding against the humanized Campath-1 Fab: 3 fold

Substance: humanized Campath-1 Fab with (VH) CDR3 replaced by that of NEW
- fold reduction of binding against the humanized Campath-1 Fab: 8 fold
